Reference: PMC8290868 (Cell Discovery, 2021)

Biological target: SARS-CoV-2 spike receptor-binding domain (RBD), wild type (Severe acute respiratory syndrome …, UniProt P0DTC2)
Experiment: SPR
Details: both partners purified

B1: 7B8, recombinant fully human IgG1 (antibody, V domains shown)
VH: QVQLVESGGGVVQPGRSLRLSCAASGFIFSSYGMHWVRQAPGKGLEWVAVIWFDGSNKYYADSVKGRFTISRDNSKNTLYLQMNSLRAEDTAVYYCARETVSYGMDVWGQGTTVTVSS
VL: NIQMTQSPSAMSASVGDRVTITCRARQGISNYLAWFQQKPGKVPKHLIYAASSLLSGVPSRFSGSGSETEFTLTISSLQPEDFATYYCLQHNSYPYTFGQGTKLEIK
notes: also called Ab4; source: ExpiCHO-S, transient expression, purified (protein A)
B1 was tested, and the Kd was 0.523 nM, the koff was 9.55e-05 s⁻¹ and the kon was 182000 M⁻¹ s⁻¹.
